# Test results from paper PMC4232355.
# Molecular target: recombinant integrin αvβ3 (UniProt P06756)
# Test: ELISA; integrin competitive binding assay: wells coated with 0.05 µg/well recombinant integrin αvβ3; 5 nM biotinylated-GRGDS with or without various peptides (20 nM) or serially diluted cyclic-(GRGDSP), 3 hr at room temperature, binding buffer with 1 mM MnCl2; bound biotinylated-GRGDS detected with streptavidin-HRP polymer
"inhibitory activity of 20 nM peptide, as the equal concentration of cyclic-(GRGDSP) [nM]","inhibitory activity of 20 nM peptide, percent of that of 20 nM cyclic-(GRGDSP) [%]",Binder
3.3,16.5,SRGDASYTSDESSDDDNDSDSH [N-opened RGD]
5.27,26.5,SDESDTNSESANESGSRGDA [C-opened RGD]
